Where no end group is shown, it is not given here.
B1: phage clone Ec 12-13 (peptide)
peptide: QWTITYPKPPAL
notes: whole phage in the assay; also called QWTITYPKPPAL
B2: phage clone Ec 4 (peptide)
peptide: WQMVLCPAC
modifications: not fully specified; cysteine pairing not given here; also: displayed on M13 phage pIII
notes: whole phage in the assay
B3: phage clone Ec 21 (peptide)
peptide: WQWCFKATC
modifications: not fully specified; cysteine pairing not given here; also: displayed on M13 phage pIII
notes: whole phage in the assay
B4: phage clone Ec 7 (peptide)
peptide: WTMCYPDTC
modifications: not fully specified; cysteine pairing not given here; also: displayed on M13 phage pIII
notes: whole phage in the assay
B5: phage clone Ec 2 (peptide)
peptide: WQFCYAQHC
modifications: not fully specified; cysteine pairing not given here; also: displayed on M13 phage pIII
notes: whole phage in the assay
B6: phage clone Ec a5 (peptide)
peptide: WTFNFCTAC
modifications: not fully specified; cysteine pairing not given here; also: displayed on M13 phage pIII
notes: whole phage in the assay

What follows are binders tested against T1, VE-cadherin/Fc chimeric protein (UniProt P33151 48-593) (assay: phage ELISA).
T1 construct: Bought from R&D Systems; also called vascular endothelial (VE)-cadherin/Fc chimeric protein; not shown: Fc part not described
T1 sequence (looked up): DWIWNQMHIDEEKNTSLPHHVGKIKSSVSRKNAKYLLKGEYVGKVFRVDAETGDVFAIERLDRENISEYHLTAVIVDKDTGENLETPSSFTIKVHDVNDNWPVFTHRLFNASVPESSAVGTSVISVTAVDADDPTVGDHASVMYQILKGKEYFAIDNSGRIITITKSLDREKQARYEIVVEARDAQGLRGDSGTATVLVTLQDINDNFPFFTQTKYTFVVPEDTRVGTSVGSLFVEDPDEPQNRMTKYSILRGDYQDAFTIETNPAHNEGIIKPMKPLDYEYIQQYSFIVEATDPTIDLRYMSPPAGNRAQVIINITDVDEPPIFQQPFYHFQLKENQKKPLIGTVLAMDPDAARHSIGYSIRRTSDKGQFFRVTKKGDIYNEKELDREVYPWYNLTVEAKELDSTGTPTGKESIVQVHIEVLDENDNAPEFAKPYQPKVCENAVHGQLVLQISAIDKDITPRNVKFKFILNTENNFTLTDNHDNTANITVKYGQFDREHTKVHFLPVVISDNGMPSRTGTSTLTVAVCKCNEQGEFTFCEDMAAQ
Experimental: (§1) The binding of each clone to the cadherin/Fc chimeric proteins was confirmed by ELISA. Wells of ProBind microtiter plates (Falcon) were coated with either N-cadherin/Fc or E-cadherin/Fc chimeric protein (100 ng/well) or human IgG1 (which contains the Fc fragment) (100 ng/well). After blocking the nonspecific sites with TBS containing 3% BSA and 1.2 mM CaCl₂ for 1 h at 37° C., phage clones (10⁹ pfu) diluted in TBST containing 3% BSA and 1.2 mM CaCl₂ (100 μl/well). Non-coated wells were also used to exclude any phage that bound to the plastic surface. After 1 h incubation at room temperature, wells were washed 3 times with TBST containing 3% BSA and 1.2 mM CaCl₂. M13 phage without any insert were used to control the non-specific binding of the phage itself to the target. Monoclonal anti-M13 antibody conjugated to horseradish peroxidase (Amersham Biosciences, Piscataway, N.J.) was diluted in TBST containing 3% BSA and 1.2 mM CaCl₂ (1:2,000) and added to each well (100 μl/well). After 1 h incubation at room temperature, wells were washed three times with TBST containing 3% BSA and 1.2 mM CaCl₂ and once with TBS containing 1.2 mM CaCl₂. Horseradish peroxidase substrate, TMB (Sigma), was added to each well (100 μl/well and after color development the reaction was stopped by addition of 100 μl 0.5 M sulphuric acid to each well. The intensity of the color was measured at 450 nm.
(§2) The phage clones shown to bind to the N-cadherin/Fc chimeric protein by ELISA were also evaluated for their ability to bind to E-cadherin/Fc and VE-cadherin/Fc chimeric proteins. The phage clones shown to bind to the E-cadherin/Fc chimeric protein by ELISA were also evaluated for their ability to bind to N-cadherin/Fc and VE-cadherin/Fc chimeric proteins. The same ELISA protocol described in the previous section was used to perform this evaluation with the exception that the wells were coated with either 100 ng N-cadherin/Fc, E-cadherin/Fc or VE-cadherin/Fc chimeric protein (R&D Systems, Minneapolis, Minn.).

Binder	binding result
EWTFQWNSYPAD (whole phage in the assay) [phage clone Ec 12-10]	no binding (tested: 10^9 pfu)
B1	no binding (tested: 10^9 pfu)
GWTVFYPDNLRP (whole phage in the assay) [phage clone Ec 12-18]	no binding (tested: 10^9 pfu)
B2	no binding (tested: 10^9 pfu)
EWQYHWPTLQSR (whole phage in the assay) [phage clone Ec 12-22]	no binding (tested: 10^9 pfu)
B3	no binding (tested: 10^9 pfu)
EWDFFWPPTQTP (whole phage in the assay) [phage clone Ec 12-19]	no binding (tested: 10^9 pfu)
WELVQCLTC (not fully specified; cysteine pairing not given here, whole phage in the assay) [phage clone Ec 1]	no binding (tested: 10^9 pfu)
QWEWHYMAGYLA (whole phage in the assay) [phage clone Ec 12-15]	no binding (tested: 10^9 pfu)
EWTWVFPTTHTS (whole phage in the assay) [phage clone Ec 12-07]	no binding (tested: 10^9 pfu)
SWTWHFPESPPP (whole phage in the assay) [phage clone Ec 12-01]	no binding (tested: 10^9 pfu)
QWTYYLPLTPRW (whole phage in the assay) [phage clone Ec 12-a4]	no binding (tested: 10^9 pfu)
EWFWSWPGYSNT (whole phage in the assay) [phage clone Ec 12-a13]	no binding (tested: 10^9 pfu)
SWEWYIPYLNRT (whole phage in the assay) [phage clone Ec 12-a11]	no binding (tested: 10^9 pfu)
B4	no binding (tested: 10^9 pfu)
SWTFYWPDAQLG (whole phage in the assay) [phage clone Ec 12-06]	no binding (tested: 10^9 pfu)
B5	no binding (tested: 10^9 pfu)
B6	no binding (tested: 10^9 pfu)
EWTYTFPTAHSI (whole phage in the assay) [phage clone Ec 12-a18]	no binding (tested: 10^9 pfu)
AWTWSLPTLPQS (whole phage in the assay) [phage clone Ec 12-a5]	no binding (tested: 10^9 pfu)
SWELYYPLRANL (whole phage in the assay) [phage clone Ec 12-a2]	no binding (tested: 10^9 pfu)
QWEIRYPWPSMG (whole phage in the assay) [phage clone Ec 12-a1]	no binding (tested: 10^9 pfu)
QWQLHWPASKQA (whole phage in the assay) [phage clone Ec 12-11]	no binding (tested: 10^9 pfu)

These binders were tested against T2, N-cadherin/Fc chimeric protein (human, UniProt P19022 160-724) (assay: phage ELISA).
T2 construct: range 160-724; Bought from R&D Systems; also called N-cad/Fc; human N-cadherin/Fc chimeric protein; not shown: Fc region of human IgG1
T2 sequence (looked up): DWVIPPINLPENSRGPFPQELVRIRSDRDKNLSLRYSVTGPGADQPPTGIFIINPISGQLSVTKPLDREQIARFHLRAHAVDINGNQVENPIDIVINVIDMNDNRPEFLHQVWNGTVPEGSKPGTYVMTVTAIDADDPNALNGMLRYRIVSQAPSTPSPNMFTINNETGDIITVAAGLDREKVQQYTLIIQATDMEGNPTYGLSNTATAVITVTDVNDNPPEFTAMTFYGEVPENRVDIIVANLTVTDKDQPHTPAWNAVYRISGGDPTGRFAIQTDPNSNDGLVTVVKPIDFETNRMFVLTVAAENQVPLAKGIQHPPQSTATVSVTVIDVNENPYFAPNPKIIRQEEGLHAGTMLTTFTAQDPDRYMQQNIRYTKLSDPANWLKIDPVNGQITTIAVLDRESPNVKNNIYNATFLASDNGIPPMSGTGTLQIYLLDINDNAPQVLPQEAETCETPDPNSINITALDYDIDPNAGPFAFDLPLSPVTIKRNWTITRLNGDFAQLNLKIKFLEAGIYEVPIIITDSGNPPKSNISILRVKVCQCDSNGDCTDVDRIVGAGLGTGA
Experimental: as §1, §2

Binder	binding result
EWTFQWNSYPAD (whole phage in the assay) [phage clone Ec 12-10]	binds
B1	binds
GWTVFYPDNLRP (whole phage in the assay) [phage clone Ec 12-18]	binds
B2	binds
EWQYHWPTLQSR (whole phage in the assay) [phage clone Ec 12-22]	binds
B3	binds
EWDFFWPPTQTP (whole phage in the assay) [phage clone Ec 12-19]	binds
WELVQCLTC (not fully specified; cysteine pairing not given here, whole phage in the assay) [phage clone Ec 1]	binds
QWEWHYMAGYLA (whole phage in the assay) [phage clone Ec 12-15]	binds
EWTWVFPTTHTS (whole phage in the assay) [phage clone Ec 12-07]	binds
SWTWHFPESPPP (whole phage in the assay) [phage clone Ec 12-01]	binds
QWTYYLPLTPRW (whole phage in the assay) [phage clone Ec 12-a4]	binds
EWFWSWPGYSNT (whole phage in the assay) [phage clone Ec 12-a13]	binds
SWEWYIPYLNRT (whole phage in the assay) [phage clone Ec 12-a11]	binds
B4	binds
SWTFYWPDAQLG (whole phage in the assay) [phage clone Ec 12-06]	binds
B5	binds
B6	binds
EWTYTFPTAHSI (whole phage in the assay) [phage clone Ec 12-a18]	binds
AWTWSLPTLPQS (whole phage in the assay) [phage clone Ec 12-a5]	binds
SWELYYPLRANL (whole phage in the assay) [phage clone Ec 12-a2]	binds
QWEIRYPWPSMG (whole phage in the assay) [phage clone Ec 12-a1]	binds
QWQLHWPASKQA (whole phage in the assay) [phage clone Ec 12-11]	binds

These binders were tested against T3, E-cadherin/Fc chimeric protein (human, UniProt P12830 155-707) (assay: phage ELISA).
T3 construct: range 155-707; Bought from R&D Systems; also called E-cad/Fc; human E-cadherin/Fc chimeric protein; not shown: Fc region of human IgG1
T3 sequence (looked up): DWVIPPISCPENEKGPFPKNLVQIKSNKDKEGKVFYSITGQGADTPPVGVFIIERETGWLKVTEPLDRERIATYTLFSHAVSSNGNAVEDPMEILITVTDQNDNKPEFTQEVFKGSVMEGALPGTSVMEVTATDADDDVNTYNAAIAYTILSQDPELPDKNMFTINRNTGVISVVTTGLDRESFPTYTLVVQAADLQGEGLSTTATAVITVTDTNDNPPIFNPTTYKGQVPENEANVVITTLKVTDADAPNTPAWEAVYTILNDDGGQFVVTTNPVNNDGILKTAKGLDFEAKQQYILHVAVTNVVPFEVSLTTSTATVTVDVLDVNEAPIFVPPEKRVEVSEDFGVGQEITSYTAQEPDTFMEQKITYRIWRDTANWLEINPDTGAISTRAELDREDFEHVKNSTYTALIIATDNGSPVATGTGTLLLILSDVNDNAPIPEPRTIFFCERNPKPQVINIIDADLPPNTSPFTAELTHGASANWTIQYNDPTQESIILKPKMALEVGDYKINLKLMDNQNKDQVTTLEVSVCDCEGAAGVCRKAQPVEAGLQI
Experimental: as §1, §2

Binder	binding result
EWTFQWNSYPAD (whole phage in the assay) [phage clone Ec 12-10]	binds
B1	binds
GWTVFYPDNLRP (whole phage in the assay) [phage clone Ec 12-18]	binds
B2	binds
EWQYHWPTLQSR (whole phage in the assay) [phage clone Ec 12-22]	binds
B3	binds
EWDFFWPPTQTP (whole phage in the assay) [phage clone Ec 12-19]	binds
WELVQCLTC (not fully specified; cysteine pairing not given here, whole phage in the assay) [phage clone Ec 1]	binds
QWEWHYMAGYLA (whole phage in the assay) [phage clone Ec 12-15]	binds
EWTWVFPTTHTS (whole phage in the assay) [phage clone Ec 12-07]	binds
SWTWHFPESPPP (whole phage in the assay) [phage clone Ec 12-01]	binds
QWTYYLPLTPRW (whole phage in the assay) [phage clone Ec 12-a4]	binds
EWFWSWPGYSNT (whole phage in the assay) [phage clone Ec 12-a13]	binds
SWEWYIPYLNRT (whole phage in the assay) [phage clone Ec 12-a11]	binds
B4	binds
SWTFYWPDAQLG (whole phage in the assay) [phage clone Ec 12-06]	binds
B5	binds
B6	binds
EWTYTFPTAHSI (whole phage in the assay) [phage clone Ec 12-a18]	binds
AWTWSLPTLPQS (whole phage in the assay) [phage clone Ec 12-a5]	binds
SWELYYPLRANL (whole phage in the assay) [phage clone Ec 12-a2]	binds
QWEIRYPWPSMG (whole phage in the assay) [phage clone Ec 12-a1]	binds
QWQLHWPASKQA (whole phage in the assay) [phage clone Ec 12-11]	binds

Source: patent publication US20100240066A1 (MCGILL UNIVERSITY, published 2010)
